Values quoted from earlier work, collected in US7452531B2, “Compositions and methods for tumor-targeted delivery of effector molecules” (Vion Pharmaceuticals, Inc., priority 1999, dated 2008).

Test system: primary tumors
Conditions: 100 mg/kg/day

For angiostatin, the toxic side effects is given as “without toxic side effects” and the tumor growth is given as “strong inhibition of tumor growth”.
